This is an account of results in US20020001806A1, “Caspase-3s splicing variant” (priority 2000, published 2002).

What all share (format): cell-based, human
In assay [1] the test system is caspase-3 and caspase-3s expression. Description: Western blot (anti-flag) of recombinant caspase-3 and caspase-3s in transfected 293 cells after IGAL treatment. The note with it: IGAL treatment 16 hours. How it is done: (§1) FIG. 6. A. 293 cells were transfected with flag-tagged caspase-3, flag-tagged caspase-3s or pcDNA3 vector, followed by IGAL treatment for 16 hours or left untreated (control). Fifty microgram of total cellular protein was assayed for caspase-3 and caspase-3s expression using antibody specific for flag-tag. The asterisk (*) indicates the N-terminal flag-tag containing activated capase-3 (20 kDa). The uppermost and lowest short arrow denote the two additional bands, 40 kDa and 14 kDa, respectively. […] 293 cells were treated with 5 μM IGAL for 48 hours. Total cell lysates were isolated and assayed for caspase-3 expression by Western blotting. The blot was probed with anticaspase-3 antibody (Pharmingen). […]
Proteasome appears to regulate caspase-3 potentially in two ways. […] To examine the effects of proteasome inhibitor on the expression of caspase-3 and caspase-3s, total cellular protein from transfected 293 cells treated with proteasome inhibitor IGAL were analyzed by Western blotting probed with the N-terminal antiflag antibody. […] In addition, we reproducibly detected two additional bands with a size of 40 kDa and 14 kDa, respectively, after IGAL treatment (FIG. 6B, lane 6). […]

Assay [2] deals with endogenous caspase-3. Description: Western blot (anti-caspase-3) of endogenous caspase-3 in untransfected 293 cells after IGAL treatment. Conditions: 5 μM IGAL, 48 hours. How it is done: as §1
Evidence that the levels of endogenous caspase-3 and caspase-3s are regulated by proteasome degradation was also sought. Untransfected 293 cells were subjected to IGAL treatment and the cell samples were analyzed on Western blots probed with anticapase-3 antibody (Pharmingen). […] In parallel, a faint immunoreactive band of 20 kDa (p20) was detected only in the presence of IGAL treatment (FIG. 6B).

Assay [3] has as its system 293 cells. Description: DNA fragmentation ELISA (Cell Death Detection ELISA) in transfected 293 cells. Conditions: for apoptosis induced by staurosporine (DNA fragmentation): 0.5 μM staurosporine, 20 hours; for DNA fragmentation (basal apoptosis): untreated, vs vector and caspase-3s. As to the method: (§2) Human embryonal kidney 293 cells were seeded 1×10^5 into each well of a 24-well plate and transfected with caspase-3 and caspase-3s cDNA constructs by calcium phosphate method (Sun Y., Bian J., Wang Y., Jacobs C. Oncogene 1997;14:385-93;14: 385-393). Briefly, 500 nanogram of DNA was incubated in 0.25 M CaCl2 solution for 10 minutes at room temperature. The mixture was then incubated with 1×HEPES buffer (pH 6.88) for 15 minutes at room temperature before being added to the culture medium. After 6 to 7 hours transfection, transfection medium was replaced with fresh Opti-MEMI medium (GIBCO) containing 5 μM of Proteasome Inhibitor I (Z-Ile-Glu(otBu)-Ala-Leu-CHO) (Calbiochem) and incubated for 16 hours. For staurosporine treatment, cells were allowed to grow for 24 hours in serum containing medium after transfection. Cells then incubated with 0.5 μM staurosporine (Calbiochem) in Opti-MEMI medium for 20 hours.
DNA fragmentation ELISA was performed using the Cell Death Detection ELISA kit (Boehringer Mannheim) following the instruction provided by the supplier. Briefly, after 16 hours treatment with IGAL (Proteasome Inhibitor I), 293 cells were lysed by incubation with 500 μL of cell lysis buffer for 2 hours at room temperature. The lysate were then centrifuged at 200×g for 10 minutes. Twenty microliter of the supernatant were transferred into the streptavidin coated microtiter plate for analysis using the reagents provided with the assay kit. Statistical analyses were performed with student t-test using Microsoft Excel analysis tools.

Assay [4] concerns PARP. Description: PARP cleavage to 85 kDa breakdown product by Western blot in transfected 293 cells. The note with it: for PARP cleavage (Western blot): IGAL treatment 16 hours, vs vector control; for PARP breakdown product (85 kDa), densitometric quantification: normalized to vector control, n=8. How it is done: as §2
Preparation of whole cell lysates and Western blotting were performed as previously described (McGinnis K. M., Gnegy M. E., Wang K. K. W. Endogenous bax translocation in SH-SY5Y human neuroblastoma cells and cerebellar granule neurons undergoing apoptosis. J. Neurochem. 1999;72:1899-1906; Huang Y., Domann F. E. Transcription factor AP-2 mRNA and DNA binding activity are constitutively expressed in SV40-immortalized but not normal human lung fibroblasts. Arch. Biochem. Biophys. 1999;364: 241-246). The blots were probed with antihuman caspase-3 p20 goat polyclonal antibody (Santa Cruz, CAT #sc-1226), antihuman caspase-3 rabbit polyclonal antibody (Pharmingen, CAT #65906E), antiflag monoclonal antibody (Sigma, CAT #F3165), or antihuman monoclonal PAPR antibody (Biomol Research Laboratories, Inc CAT #SA-250).
It is known that cleavage of caspase-3 substrates, such as poly(ADP)ribose polymerase (PARP), is prerequisite for apoptosis. Therefore, the effects of caspase-3s overexpression on PARP cleavage in both control and IGAL treated 293 was examined, along with caspase-3 overexpression as positive control. Cleavage of PARP to an immunoreactive breakdown product (85 kDa) was measured by Western blot.
(A western blot detects proteins with antibodies after separation by electrophoresis.)

Assay [5] relates to 293 cells. Description: Cytotox 96 colorimetric LDH release cytotoxicity assay in transfected 293 cells. Conditions: for apoptosis / cell death (LDH release) induced by proteasome inhibitor I: 5 μM proteasome inhibitor I, 12 hours, vs vector. How it is done: The following experiments were performed to test the hypothesis that caspase-3s acts as a dominant negative isoform of caspase-3. The pcDNA empty vector, caspase-3, and caspase-3s constructs were transfected into 293 cells using the method described above (Sun et al., Supra., 1997). After 6 to 7 hours transfection, transfection medium was replaced with fresh medium containing 5 μM of proteasome inhibitor I (Z-Ile-Glu(otBu)-Ala-Leu-CHO) (Calbiochem). Cells were then incubated for 12 hours. Twenty-five microliter of the culture medium was subjected to cytotoxicity assay using the Cytotox 96 colorimetric LDH assay kit (Promega) according to manufacturer's instruction. Statistics were performed with t-test using Microsoft Excel analysis tools.
For control cells, lactate dehydrogenase (LDH) release in caspase-3 transfected cells was compared with both vector and caspase-3s transfected cells. For proteasome inhibitor treated cells, LDH release was compared between vector and caspase-3s transfected cells.
Background: LDH in the medium is a marker of cell lysis.

“Also recorded” adds a separate entry of the source.

In the case of Z-Ile-Glu(otBu)-Ala-Leu-CHO [IGAL], the “amount of recombinant caspase-3s” value in assay [1] (flag-tagged caspase-3s transfected 293 cells) is reported as “dramatic increase”. In assay [1] (flag-tagged caspase-3 transfected 293 cells), the “abundance of recombinant full length caspase-3 (32 kDa band)” value is recorded as “decrease in the abundance”. In assay [2], the “endogenous activated caspase-3 (p17)” value is recorded as “appearance of the 17 kDa activated caspase-3 (p17)” and the “levels of endogenous full-length caspase-3 (p32)” value is listed as “remain the same; also recorded: stabilized endogenous caspase-3 expression”.

B1: caspase-3: full length caspase-3 (32 kDa) cDNA in pcDNA3 vector transfected into 293 cells (protein, UniProt P42574 1-277, looked up)
chain: MENTENSVDSKSIKNLEPKIIHGSESMDSGISLDNSYKMDYPEMGLCIIINNKNFHKSTGMTSRSGTDVDAANLRETFRNLKYEVRNKNDLTREEIVELMRDVSKEDHSKRSSFVCVLLSHGEEGIIFGTNGPVDLKKITNFFRGDRCRSLTGKPKLFIIQACRGTELDCGIETDSGVDDDMACHKIPVEADFLYAYSTAPGYYSWRNSKDGSWFIQSLCAMLKQYADKLEFMHILTRVNRKVATEFESFSFDATFHAKKQIPCIVSMLTKELYFYH
modifications: full-length
notes: full length caspase-3 (32 kDa) cDNA in pcDNA3 vector transfected into 293 cells
Consider B1, for which, in assay [3], the “apoptosis induced by staurosporine (DNA fragmentation)” value is “did not reduce” and the “DNA fragmentation (basal apoptosis)” value was “significantly increased DNA fragmentation”. Besides, the “DNA fragmentation (basal apoptosis)” value in assay [3] (listed as capase-3) is listed as “induced basal apoptosis”. In assay [4], the “PARP cleavage (Western blot)” value is recorded as “enhanced by IGAL treatment” and the “PARP breakdown product (85 kDa), densitometric quantification” value is “increased PARP cleavage”. Further, the “basal PARP cleavage (Western blot)” value in assay [4] (nontreated) was “increased basal PARP cleavage”. The “apoptosis / cell death (LDH release) induced by proteasome inhibitor I” value in assay [5] is reported as “underwent substantial apoptosis”. Further, the “apoptosis (LDH release)” value in assay [5] (untreated condition, vs vector and caspase-3s transfected cells) was “significantly increased apoptosis”.

B2: caspase-3s: novel splicing variant of caspase-3, C-terminal truncated, 182 amino acids (SEQ ID No. 2); tested as transfected pcDNA3 cDNA construct (protein, listed as Homo sapiens)
chain: MENTENSVDSKSIKNLEPKIIHGSESMDSGISLDNSYKMDYPEMGLCIIINNKNFHKSTGMTSRSGTDVDAANLRETFRNLKYEVRNKNDLTREEIVELMRDVSKEDHSKRSSFVCVLLSHGEEGIIFGTNGPVDLKKITNFFRGDRCRSLTGKPKLFIIQVIILGEIQRMAPGSSSRFVPC
Turning to B2, the “apoptosis induced by staurosporine (DNA fragmentation)” value in assay [3] was “no significant effect”. Also, the “DNA fragmentation (apoptosis) induced by IGAL” value in assay [3] (5 μM IGAL, 16 hours, vs vector control and caspase-3, n=4) is “partially but significantly inhibited apoptosis; also recorded: significantly (# p<0.05) inhibited DNA fragmentation”. The “PARP cleavage (Western blot)” value is on record as “partially but significantly inhibited the cleavage of PARP” in assay [4] and “partially inhibited PARP cleavage” in assay [4] (listed as Caspase-3s). In assay [4], the “PARP breakdown product (85 kDa), densitometric quantification” value is listed as “significantly decreased”. Also, the “apoptosis / cell death (LDH release) induced by proteasome inhibitor I” value in assay [5] is “significantly inhibited; also recorded: inhibits apoptotic cell death”; in assay [5] (listed as Caspase-3s), “inhibits cell death”.
